Article PMC4383175

How the values were obtained:
[1] = biological target: Trypanosoma brucei haptoglobin-haemoglobin receptor, truncated N-terminal ligand-binding domain (residues 36-299) (Trypanosoma brucei brucei) (UniProt Q581F2); experiment: SPR
[2] = biological target: Native (dimeric) human haptoglobin-haemoglobin complex (Hp 1-1 with Hb) (human) (UniProt P00738); experiment: SEC-SAXS
[3] = biological target: Native (dimeric) human haptoglobin-haemoglobin complex (Hp 1-1 with Hb) (human) (UniProt P00738); experiment: SEC-MALS

Row | Substance | Kd [1] [nM] | stoichiometry N (receptors per HpHb) [2] | stoichiometry N (receptors per HpHb) [3]
1 | HpSPHb complex: serine protease domain of human haptoglobin (148-406) bound to a human haemoglobin alpha-beta dimer (from UniProt P00738 148-406) | 700 | – | –
2 | HprSPHb complex: serine protease domain of human haptoglobin-related protein (90-348) bound to human haemoglobin (from UniProt P00739 90-348) | 1700 | – | –
3 | Trypanosoma brucei haptoglobin-haemoglobin receptor, truncated N-terminal ligand-binding domain (residues 36-299) (from UniProt Q581F2 36-299) | – | 2 | 2
